In PMC12125552:

Assays:
[1] = target: DdMyo7 long heavy meromyosin (lnHMM), FLAG-tagged (Dictyostelium); experiment: co-IP; lnHMM (FLAG) precipitated with anti-Flag beads from a MgATP-released, myosin-enriched cytoskeletal fraction of talA null cells; washed in Flag buffer (25 mM Hepes pH 7.4, 300 mM NaCl, 10 mM MgCl2 and 5 mM EGTA, or 2 mM CaCl2); eluted with Flag peptide; gel stained with Coomassie or Sypro Ruby, densitometry normalised to molecular weights; lower band identified by mass spectrometry
[2] = target: DdMyo7 short heavy meromyosin forced-dimer GFP (shHMM-FD-GFP) (Dictyostelium | not stated)
[3] = target: DdMyo7 short heavy meromyosin forced-dimer GFP (shHMM-FD-GFP) (Dictyostelium | not stated); experiment: co-IP; as a2, but the resin washed in IP wash buffer + 2 mM CaCl2 (+Ca2+); immunoblot signal normalised for gel load and heavy chain abundance

Chain of DdMyo7 long heavy meromyosin (lnHMM), FLAG-tagged (Dictyostelium) (Q9U1M8 686-725): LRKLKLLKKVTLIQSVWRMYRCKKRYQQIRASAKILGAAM

| Substance | stoichiometry N [1] | velocity of shHMM-FD on F-actin (TIRF motility assay) with 100 μM free Ca2+, against 40.7 nm/s without Ca2+ [2] | reduction of immunoblot signal with Ca2+ [3] |
| --- | --- | --- | --- |
| Dictyostelium CaM-like protein CalB (natural protein) | 2.01 CalB per HC | 23.6 nm/s |  |
| FLAG-CalB (natural protein) |  |  | 75.1% |
